Laboratory results reported in the supplement of paper PMC9112550, “Optimization of the antimicrobial peptide Bac7 by deep mutational scanning” (BMC Biology, 2022).

system: Escherichia coli TOP10; assay: shrunken log2 fold change of peptide-encoding DNA abundance (4.5 h post-induction vs induction); higher = less antimicrobial activity (less host growth inhibition); conditions: time post-induction: 4.5 h; library: site-saturation at positions 5, 18, 19, 20
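Also: peptides expressed intracellularly from a pBAD plasmid library in pooled LB shake-flask culture, induced with 0.3% L-arabinose, DNA abundance read by NGS, three biological replicates, DESeq2 with apeglm shrinkage.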

| Sequence | shrunken log2 fold change |
| --- | --- |
| RRIRMRPPRLPRPRPRPYYVPRP | -0.0412 |
| RRIRPRPPRLPRPRPRPFDTPRP | -0.126 |
| RRIRHRPPRLPRPRPRPACIPRP | -0.132 |
| RRIRNRPPRLPRPRPRPKLKPRP | 0.2 |
| RRIRHRPPRLPRPRPRPFWTPRP | -0.766 |
| RRIRCRPPRLPRPRPRPTPRPRP | 0.987 |
| RRIRTRPPRLPRPRPRPCAKPRP | 0.423 |
| RRIRFRPPRLPRPRPRPPDPPRP | 0.571 |
| RRIRVRPPRLPRPRPRPWELPRP | -0.487 |
| RRIRNRPPRLPRPRPRPWQSPRP | -0.0702 |
| RRIRQRPPRLPRPRPRPCCTPRP | -0.137 |
| RRIRRRPPRLPRPRPRPCYPPRP | -0.0837 |
| RRIRLRPPRLPRPRPRPKLDPRP | -0.0265 |
| RRIRWRPPRLPRPRPRPKVFPRP | -0.00123 |
| RRIRQRPPRLPRPRPRPQQRPRP | 0.0983 |
| RRIRKRPPRLPRPRPRPPYCPRP | 0.0662 |
| RRIRHRPPRLPRPRPRPHRHPRP | -0.2 |
| RRIRTRPPRLPRPRPRPRYCPRP | -0.116 |
| RRIRFRPPRLPRPRPRPPTWPRP | 0.239 |
| RRIRDRPPRLPRPRPRPCYWPRP | 0.00776 |

| Sequence | shrunken log2 fold change |
| --- | --- |
| RRIRKRPPRLPRPRPRPESAPRP | 1.72 |
| RRIRYRPPRLPRPRPRPIDFPRP | -0.245 |
| RRIRGRPPRLPRPRPRPDKEPRP | 0.208 |
| RRIRLRPPRLPRPRPRPSIEPRP | -0.602 |
| RRIRIRPPRLPRPRPRPCDDPRP | -0.395 |
| RRIRWRPPRLPRPRPRPRFKPRP | 0.0187 |
| RRIRGRPPRLPRPRPRPQHWPRP | 0.165 |
| RRIRERPPRLPRPRPRPFTCPRP | -0.00783 |
| RRIRIRPPRLPRPRPRPKKVPRP | -0.291 |
| RRIRVRPPRLPRPRPRPYGWPRP | -0.0905 |
| RRIRWRPPRLPRPRPRPWYGPRP | -0.34 |
| RRIRGRPPRLPRPRPRPAHVPRP | 0.586 |
| RRIRSRPPRLPRPRPRPWDEPRP | -0.0358 |
| RRIRPRPPRLPRPRPRPTARPRP | 0.352 |
| RRIRRRPPRLPRPRPRPMGVPRP | 0.324 |
| RRIRFRPPRLPRPRPRPFPEPRP | -0.363 |
| RRIRGRPPRLPRPRPRPVNSPRP | 0.0202 |
| RRIRKRPPRLPRPRPRPVFDPRP | 0.171 |
| RRIRHRPPRLPRPRPRPGAHPRP | -0.457 |
| RRIRDRPPRLPRPRPRPIWWPRP | 0.498 |

| Sequence | shrunken log2 fold change |
| --- | --- |
| RRIRERPPRLPRPRPRPRCAPRP | 0.228 |
| RRIRKRPPRLPRPRPRPVYFPRP | -0.181 |
| RRIRFRPPRLPRPRPRPSEVPRP | -0.0167 |
| RRIRVRPPRLPRPRPRPYYLPRP | -0.286 |
| RRIRDRPPRLPRPRPRPCPVPRP | -0.426 |
| RRIRTRPPRLPRPRPRPHKIPRP | -0.587 |
| RRIRVRPPRLPRPRPRPMDEPRP | 0.422 |
| RRIRPRPPRLPRPRPRPYTCPRP | -0.179 |
| RRIRCRPPRLPRPRPRPIVCPRP | -0.272 |
| RRIRKRPPRLPRPRPRPKCKPRP | 0.545 |
| RRIRMRPPRLPRPRPRPQRCPRP | 0.551 |
| RRIRIRPPRLPRPRPRPLHLPRP | -1.08 |
| RRIRCRPPRLPRPRPRPVLRPRP | 0.183 |
| RRIRTRPPRLPRPRPRPNVCPRP | 0.128 |
| RRIRGRPPRLPRPRPRPIEIPRP | -0.0543 |
| RRIRVRPPRLPRPRPRPLQPPRP | 0.158 |
| RRIRFRPPRLPRPRPRPETVPRP | 0.0039 |
| RRIRFRPPRLPRPRPRPLLRPRP | 0.0227 |
| RRIRTRPPRLPRPRPRPDRYPRP | 0.04 |
| RRIRMRPPRLPRPRPRPWDVPRP | 0.0498 |
